Our source for the abundance fitness values is the Human Domainome abundance scans (Beltran et al. 2025).

± gives the uncertainty stated by the source.

The nature of the series: abundance fitness (aPCA) (normalised: wild type 0, dead -1); higher = more abundant; growth selection in yeast, the domain comes from the species named. To be noted: Homo sapiens.
As for “Scaffold attachment factor B2 A40D, Q14151”, the abundance fitness was -0.409 ± 0.25.
“Scaffold attachment factor B2 A40E, Q14151” yielded an abundance fitness of 0.022 ± 0.097.
Take “Scaffold attachment factor B2 A40G, Q14151”: the abundance fitness is -0.233 ± 0.1.
Next, “Scaffold attachment factor B2 A40L, Q14151”: -0.292 ± 0.12; “Scaffold attachment factor B2 A40M, Q14151”: 0.613 ± 0.36; “Scaffold attachment factor B2 A40P, Q14151”: -0.433 ± 0.22.
To “Scaffold attachment factor B2 A40R, Q14151” belongs -0.368 ± 0.13.
“Scaffold attachment factor B2 A40S, Q14151” returned an abundance fitness of -0.168 ± 0.12.
Next, “Scaffold attachment factor B2 A40T, Q14151”: -0.561 ± 0.17; “Scaffold attachment factor B2 A40W, Q14151”: -0.135 ± 0.31.
Next, “Scaffold attachment factor B2 A40Y, Q14151”: -0.387 ± 0.11; “Scaffold attachment factor B2 A63C, Q14151”: -0.235 ± 0.19; “Scaffold attachment factor B2 A63E, Q14151”: -0.325 ± 0.12.
To “Scaffold attachment factor B2 A63F, Q14151” belongs -0.628 ± 0.18; to “Scaffold attachment factor B2 A63G, Q14151”, -0.324 ± 0.083.
“Scaffold attachment factor B2 A63I, Q14151” gave an abundance fitness of -0.546 ± 0.16.
Substance “Scaffold attachment factor B2 A63K, Q14151” gave an abundance fitness of -0.695 ± 0.15.
Next, “Scaffold attachment factor B2 A63L, Q14151”: -0.984 ± 0.16.
To “Scaffold attachment factor B2 A63M, Q14151” belongs -0.649 ± 0.13.
Next, “Scaffold attachment factor B2 A63P, Q14151”: -0.608 ± 0.13; “Scaffold attachment factor B2 A63Q, Q14151”: -0.292 ± 0.11.
“Scaffold attachment factor B2 A63R, Q14151” had an abundance fitness of -0.433 ± 0.089.
To “Scaffold attachment factor B2 A63S, Q14151” belongs -0.367 ± 0.13; to “Scaffold attachment factor B2 A63T, Q14151”, -0.44 ± 0.13; to “Scaffold attachment factor B2 A63V, Q14151”, -0.175 ± 0.11.
To “Scaffold attachment factor B2 A63W, Q14151” belongs -0.63 ± 0.11; to “Scaffold attachment factor B2 D37A, Q14151”, -0.513 ± 0.091.
“Scaffold attachment factor B2 D37C, Q14151” displayed an abundance fitness of -0.548 ± 0.12.
To “Scaffold attachment factor B2 D37E, Q14151” belongs -0.012 ± 0.095; to “Scaffold attachment factor B2 D37F, Q14151”, -0.737 ± 0.12.
Consider “Scaffold attachment factor B2 D37G, Q14151”, for which the abundance fitness is -0.602 ± 0.076.
“Scaffold attachment factor B2 D37H, Q14151” yielded an abundance fitness of -0.865 ± 0.16.
Next, “Scaffold attachment factor B2 D37K, Q14151”: -1.19 ± 0.18.
For the substance “Scaffold attachment factor B2 D37L, Q14151”, the abundance fitness is -0.9 ± 0.14.
Take “Scaffold attachment factor B2 D37M, Q14151”: the abundance fitness is -1 ± 0.21.
“Scaffold attachment factor B2 D37N, Q14151” displayed an abundance fitness of -0.883 ± 0.23.
Regarding “Scaffold attachment factor B2 D37P, Q14151”, the abundance fitness is -0.463 ± 0.14.
To “Scaffold attachment factor B2 D37Q, Q14151” belongs -0.514 ± 0.11; to “Scaffold attachment factor B2 D37R, Q14151”, -1.05 ± 0.083; to “Scaffold attachment factor B2 D37S, Q14151”, -0.556 ± 0.1.
Next, “Scaffold attachment factor B2 D37T, Q14151”: -0.597 ± 0.089; “Scaffold attachment factor B2 D37V, Q14151”: -0.651 ± 0.088; “Scaffold attachment factor B2 D37W, Q14151”: -0.495 ± 0.086.
“Scaffold attachment factor B2 D37Y, Q14151” showed an abundance fitness of -0.797 ± 0.16.
For “Scaffold attachment factor B2 D48A, Q14151”, the abundance fitness is -0.181 ± 0.085.
To “Scaffold attachment factor B2 D48C, Q14151” belongs -0.188 ± 0.11.
The substance “Scaffold attachment factor B2 D48F, Q14151” came in with an abundance fitness of -0.338 ± 0.36.
“Scaffold attachment factor B2 D48G, Q14151” registered an abundance fitness of -0.284 ± 0.077.
Next, “Scaffold attachment factor B2 D48I, Q14151”: -0.555 ± 0.13.
“Scaffold attachment factor B2 D48K, Q14151”: the abundance fitness was -0.358 ± 0.084.
In turn, “Scaffold attachment factor B2 D48L, Q14151” yielded an abundance fitness of -0.513 ± 0.094.
Consider “Scaffold attachment factor B2 D48M, Q14151”, for which the abundance fitness is -0.545 ± 0.14.
Substance “Scaffold attachment factor B2 D48P, Q14151” gave an abundance fitness of 0.03 ± 0.089.
In turn, “Scaffold attachment factor B2 D48Q, Q14151” registered an abundance fitness of -0.329 ± 0.11.
To “Scaffold attachment factor B2 D48R, Q14151” belongs -0.625 ± 0.082; to “Scaffold attachment factor B2 D48S, Q14151”, -0.214 ± 0.086; to “Scaffold attachment factor B2 D48T, Q14151”, -0.526 ± 0.083.
To “Scaffold attachment factor B2 D48W, Q14151” belongs -0.757 ± 0.087; to “Scaffold attachment factor B2 D48Y, Q14151”, -0.744 ± 0.14; to “Scaffold attachment factor B2 D70A, Q14151”, 0.141 ± 0.14.
In turn, “Scaffold attachment factor B2 D70C, Q14151” returned an abundance fitness of -0.037 ± 0.12.
Substance “Scaffold attachment factor B2 D70E, Q14151” gave an abundance fitness of 0.125 ± 0.12.
The substance “Scaffold attachment factor B2 D70F, Q14151” displayed an abundance fitness of -0.431 ± 0.15.
To “Scaffold attachment factor B2 D70G, Q14151” belongs -0.036 ± 0.11; to “Scaffold attachment factor B2 D70H, Q14151”, -0.197 ± 0.13; to “Scaffold attachment factor B2 D70I, Q14151”, -0.258 ± 0.17.
Next, “Scaffold attachment factor B2 D70K, Q14151”: -0.337 ± 0.29; “Scaffold attachment factor B2 D70P, Q14151”: 0.014 ± 0.13.
Regarding “Scaffold attachment factor B2 D70S, Q14151”, the abundance fitness was -0.094 ± 0.15.
For the substance “Scaffold attachment factor B2 D70V, Q14151”, the abundance fitness was -0.283 ± 0.14.
“Scaffold attachment factor B2 D70W, Q14151”: the abundance fitness was -0.576 ± 0.16.
Substance “Scaffold attachment factor B2 E32A, Q14151” returned an abundance fitness of -0.445 ± 0.11.
For “Scaffold attachment factor B2 E32C, Q14151”, the abundance fitness is -0.33 ± 0.12.
Next, “Scaffold attachment factor B2 E32D, Q14151”: 0.003 ± 0.1; “Scaffold attachment factor B2 E32F, Q14151”: -0.873 ± 0.27; “Scaffold attachment factor B2 E32H, Q14151”: -0.52 ± 0.23.
Next, “Scaffold attachment factor B2 E32I, Q14151”: -0.657 ± 0.14; “Scaffold attachment factor B2 E32K, Q14151”: -0.355 ± 0.23; “Scaffold attachment factor B2 E32L, Q14151”: -0.543 ± 0.1.
Next, “Scaffold attachment factor B2 E32M, Q14151”: -0.554 ± 0.093.
For the substance “Scaffold attachment factor B2 E32N, Q14151”, the abundance fitness was determined as 0.078 ± 0.35.
“Scaffold attachment factor B2 E32P, Q14151” registered an abundance fitness of -0.474 ± 0.12.
Next, “Scaffold attachment factor B2 E32Q, Q14151”: -0.135 ± 0.087; “Scaffold attachment factor B2 E32R, Q14151”: -0.431 ± 0.087; “Scaffold attachment factor B2 E32S, Q14151”: -0.36 ± 0.093.
Take “Scaffold attachment factor B2 E32T, Q14151”: the abundance fitness was -0.07 ± 0.13.
To “Scaffold attachment factor B2 E32V, Q14151” belongs -0.393 ± 0.077.
To “Scaffold attachment factor B2 E32W, Q14151” belongs -0.621 ± 0.09.
Next, “Scaffold attachment factor B2 E41L, Q14151”: -0.876 ± 0.35.
As to “Scaffold attachment factor B2 E41R, Q14151”, the abundance fitness was -1.09 ± 0.38.
Next, “Scaffold attachment factor B2 E41W, Q14151”: -1.02 ± 0.23; “Scaffold attachment factor B2 E58A, Q14151”: -0.129 ± 0.085; “Scaffold attachment factor B2 E58C, Q14151”: -0.364 ± 0.12.
To “Scaffold attachment factor B2 E58D, Q14151” belongs 0.001 ± 0.12; to “Scaffold attachment factor B2 E58F, Q14151”, -0.769 ± 0.11; to “Scaffold attachment factor B2 E58G, Q14151”, -0.26 ± 0.077.
